This series in a line: yeast display, Sf9 membrane polyspecificity reagent, FACS + sequencing; frameworks hold sequencing errors. Put shortly:
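Genes from sorted yeast were amplified by colony PCR, read by MiSeq 2 × 250 sequencing and filtered on CDR length. These cells carried a synthetic nanobody library in Saccharomyces cerevisiae BJ5465 and were sorted by FACS into low and high (top ~1%) gates on anti-HA and streptavidin fluorescence. Polyreactivity is labelled according to the gate of origin.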
For the sequence “QVQLVESGGGLVQAGGSLRLSCAASGSIFLYNAMGWYRQAPGKERELVAAISASGGSTYYADSVKGRFTISRDNAKNTVYLQMNSLKPEDTAVYYCAAQYSDYDGFTWPLPPRYDYWGQGTQVTVSS”, the “polyreactivity (PSR sort gate)” value is on record as “high polyreactivity”.

For “QVQLVESGGGLVQAGGSLRLSCAASGSIFLYNAMGWYRQAPGKERELVAAITWSTDRTYYADSVKGRFTISRDNAKNTVYVQMNSLKPEDTAVYYCNRLVNHIYVPRRDYWGQGTQVTVSS”, the “polyreactivity (PSR sort gate)” value is “low polyreactivity”.

Turning to “QVQLVESGGGLVQAGGSLRLSCAASGSIFLYNAMGWYRQAPGKERELVATITYIGGRTYYADSVKGRFTISRDNAKNTVYLQMNSLKQEDTAVYYCAAEYYVISSPSFYEYDYWGQGTQVTVSS”, the “polyreactivity (PSR sort gate)” value is given as “low polyreactivity”.

Take “QVQLVESGGGLVQAGGSLRLSCAASGSIFLYNTMGWYRQAPGKQRELVAALTYSGGSTYYADSVKGRFTISRDHAKNTVYLQMNSLKPEDTAVNYGNARHYSAYYSWGQGTLVTVSS”: the “polyreactivity (PSR sort gate)” value is “high polyreactivity”.

Consider “QVQLVESGGGLVQAGGSLRLSCAASGSIFLYYAMGWYRQAPGKVRALLAAISWDGGSTYYADSVKGRFTISRDNAKNTVYLQMNSLKPEDTAVYYCNKAPYYYLPHSLRYNYWGQGTQVTVSS”, for which the “polyreactivity (PSR sort gate)” value is given as “high polyreactivity”.

For the sequence “QVQLVESGGGLVQAGGSLRLSCAASGSIFMGNAMGWYRQAPGKERELVATITSSGSTSYADSVKGRFTISRDNAKNTVYVQMNSLKPEDTAVYYCNTDLFQYGRTSTIYYEYDYWGQGTQVTVSS”, the “polyreactivity (PSR sort gate)” value was “high polyreactivity”.

For “QVQLVESGGGLVQAGGSLRLSCAASGSIFNAYAMGWYRQAPGKERELVAVISRPGGSTYYADSVKGRFTISRDNAKNTVYLQMNSLKPEDTAVYYCNVYYPYKHRYYHLDYWGQGTQVTVSS”, the “polyreactivity (PSR sort gate)” value was “high polyreactivity”.

Turning to “QVQLVESGGGLVQAGGSLRLSCAASGSIFNDNVMGWYRQAPGKERELVAGISRSGTRTYYADSVKGRFTISRDNAKNTVYLQMNSLKPEDTAVYSGAAAYGQARRYNGSQYGSWGQGTQVTVSS”, the “polyreactivity (PSR sort gate)” value was “high polyreactivity”.

Take “QVQLVESGGGLVQAGGSLRLSCAASGSIFNDYGKAWYRQAPGKERDLVAAISASGGSTYYADSVKGRFTISRYNAKNPVYLQLNSLNPEDTAVYYCAAYYMGLYYLYVDALGYDYWGQGTQVTVSS”: the “polyreactivity (PSR sort gate)” value is recorded as “low polyreactivity”.

Consider “QVQLVESGGGLVQAGGSLRLSCAASGSIFNLNAMGWYIQAPGKERELVASISSDRSTYYADSVKGRFTISRDNAKNTVYLQMNSLKQEDTAVYYCNADSQLAFKQLSFDYWGQGTQVTVSS”, for which the “polyreactivity (PSR sort gate)” value was “low polyreactivity”.

In the case of “QVQLVESGGGLVQAGGSLRLSCAASGSIFNLNAMGWYRQAPGKEREFVAGITYSAGRTYYADSVKGRFTISRDNAKNTVYLQMNSLKPEDTAVYYCAARIYSKFTSYGILDSWGQGTQVTVSS”, the “polyreactivity (PSR sort gate)” value was “high polyreactivity”.

On to “QVQLVESGGGLVQAGGSLRLSCAASGSIFNLYAMGWYRQAPGKERELVAAINWSGGSTYYADSVKGRFTISRDNAKNTVYLQMNSLKPEDTAVYYCAADAYSTYYGYEGDYWGQGTQVTVSS”, for which the “polyreactivity (PSR sort gate)” value is “low polyreactivity”.

As for “QVQLVESGGGLVQAGGSLRLSCAASGSIFNLYAMGWYRQAPGKEREMVAAISYSTGSTYYADSVKGRFTISRDNAKNTVYLQMTSLKPEDTAVYYCNAQEGILGWVLYDYWGQGTQVTVSS”, the “polyreactivity (PSR sort gate)” value is “high polyreactivity”.

As to “QVQLVESGGGLVQAGGSLRLSCAASGSIFNPYDMGWYRQAPGKERELVAAIDWSGGSTYYADSVKGRFTISRDNAKNTVYLQMNSLKPEDTAVYYCNAESYQDTLFGADNDYDYWGQGTQVTVSS”, the “polyreactivity (PSR sort gate)” value is on record as “low polyreactivity”.

Take “QVQLVESGGGLVQAGGSLRLSCAASGSIFNQYAMGWHRQAPGKERELVAAISSDGGRTYYADSVKGRFTISRDNAKNTVYLQMNSLNPEDTAVYYCNKDVRPAYRWYDYWGQDTQVTVSS”: the “polyreactivity (PSR sort gate)” value was “low polyreactivity”.

On to “QVQLVESGGGLVQAGGSLRLSCAASGSIFNRNAMGWYRQAPGKERELVAAITRRGGSTYYADSVKGRFTISRDNAKNTVYLQMNSLKPEDTAVYYCAAATRKTEYDYWGQGTQVTVSS”, for which the “polyreactivity (PSR sort gate)” value is on record as “low polyreactivity”.

As for “QVQLVESGGGLVQAGGSLRLSCAASGSIFNRYAMGCYRQATGKERELVAAINSRGGSTSYADSVKGRFTISRDIAKNTVYLQMNSLKPEDTAVYYCAADRGVNSYGYWGQGTQETVSS”, the “polyreactivity (PSR sort gate)” value is “high polyreactivity”.

Consider “QVQLVESGGGLVQAGGSLRLSCAASGSIFNRYAMGWYRQAPGKERELVAAIRSGDNTNYADSVKGRFTISRDNAKNTVYLQMNSLKPEDTAVYYCAKRTYYRSRTVGWGKMDYWGQGTQVTVSS”, for which the “polyreactivity (PSR sort gate)” value is given as “high polyreactivity”.

Regarding “QVQLVESGGGLVQAGGSLRLSCAASGSIFNRYAMGWYRQAPGKERELVAAISSTGSTYYADSVKGRFTISRDNAKNTVYLQMNSLKPEDTAVYYCNADATHDWLRVDTYEYWGQGTQVTVSS”, the “polyreactivity (PSR sort gate)” value is given as “low polyreactivity”.

For the sequence “QVQLVESGGGLVQAGGSLRLSCAASGSIFNRYTMGWYRQAPGKERELVAAISKRGGSTYYADSVKGRFTISRDNAKNTVYLQMNSLKPEDTAVYYCAAAAYHSGKGGGYWGQGTQVTVSS”, the “polyreactivity (PSR sort gate)” value is given as “high polyreactivity”.

In the case of “QVQLVESGGGLVQAGGSLRLSCAASGSIFNSNVMGWYRQAPGKERELVAAISTSGGSTHYADSVKGRFTISRDNAKNTVYLQMNSLKPEDTAVYYCAARVSSYSQLYYYWGQGTQVTVSS”, the “polyreactivity (PSR sort gate)” value is listed as “high polyreactivity”.

On to “QVQLVESGGGLVQAGGSLRLSCAASGSIFNSYAMGWYRQAPGKERELVAAISGSGTRTYYADSVKGRFTISRDNAKNTVYLQMNSLKPEDTAVYYCAGYGYWGQGTQVNVSS”, for which the “polyreactivity (PSR sort gate)” value is “high polyreactivity”.

For “QVQLVESGGGLVQAGGSLRLSCAASGSIFNSYAMGWYRQAPGKERELVAAISKRGGSTYYADSVKGRFTISRDNAKNTVYLQMNSLKPEDTAVYYCAAEYYYAGWSYSYDYWGQGTQVTVSS”, the “polyreactivity (PSR sort gate)” value is recorded as “high polyreactivity”.

As to “QVQLVESGGGLVQAGGSLRLSCAASGSIFNSYAMGWYRQAPGKERELVAAITRSDGSTYYADSVKGRFTISRDKAKNTVYLQMNSLKPEDTAVYYCAKGVGGYIYSEYDYWGQGTQVTVSS”, the “polyreactivity (PSR sort gate)” value is “low polyreactivity”.

Turning to “QVQLVESGGGLVQAGGSLRLSCAASGSIFNTNAMGWYRQAPGKERELVAAISKNAGRTFYADSVKGRFTISRDNAKNTVYLQMNSLKPEDTAVYYCAARGVGPQPGYQRFNYWGQGTQVTVSS”, the “polyreactivity (PSR sort gate)” value is recorded as “high polyreactivity”.

For the sequence “QVQLVESGGGLVQAGGSLRLSCAASGSIFNTYVMGWYRQAPGKERELVAAITSSGGRTYYADSVKGRFTISRDNAKNTVYLQMNSLKPEDTAVYYCNTAQRWVGRNDYWGQGTQVTVSS”, the “polyreactivity (PSR sort gate)” value was “high polyreactivity”.

“QVQLVESGGGLVQAGGSLRLSCAASGSIFNWYAMGWSRQAPGKERELVAAISEDGGSTYYADSVKGRFTISRDNAKNTVYLQMNTLKPEDTAVYYCATPVASVTGYDYWGQGTQVTVSS”: the “polyreactivity (PSR sort gate)” value is recorded as “low polyreactivity”.

For “QVQLVESGGGLVQAGGSLRLSCAASGSIFNYNAMGWYRQAPGKERELVAAITWSGGTTYYADSVKGRFTISRDNAKNTVYLQMNSLIPEDTAVYYCAAEWWDGSYPLYEYYYWGQGTQVNVSS”, the “polyreactivity (PSR sort gate)” value is “high polyreactivity”.

As for “QVQLVESGGGLVQAGGSLRLSCAASGSIFNYNDMGWYRQAPGKERELVATITNGGGTNYADSVKGRFTISRDNAKNTVFLQMNSLKPEDTAVYYCAAGRSGWGYDSWGQGTQVTVSS”, the “polyreactivity (PSR sort gate)” value is reported as “low polyreactivity”.

Turning to “QVQLVESGGGLVQAGGSLRLSCAASGSIFNYSAMGWYRQARGKERELVAGITTSGGSTYYADSVKGRFTISRDNAKNTVYLQMNSLKPEDTAVYYCAAYDYISSTYFLDDYWGQGTQVTVSS”, the “polyreactivity (PSR sort gate)” value is reported as “low polyreactivity”.

Turning to “QVQLVESGGGLVQAGGSLRLSCAASGSIFNYYAMGWYRQAPGKERELVAAITSGVSTYADSVKGRFTISRDNAKNTVYLQMNSLKPEVTAVYYCADRVTGPRGDYWGQGTQVTVSS”, the “polyreactivity (PSR sort gate)” value is “low polyreactivity”.

For “QVQLVESGGGLVQAGGSLRLSCAASGSIFNYYDMGWYRQAPGKERELVAAIDLTGGTTYYADSVKGRFTISRDNAKNTVYLQMNSLKPEDTAVYYCAAQYIRSSWWGYDYWGQGTQVSVSS”, the “polyreactivity (PSR sort gate)” value was “low polyreactivity”.

For “QVQLVESGGGLVQAGGSLRLSCAASGSIFPANAMGWYRQAPGKERELVAGISERGSSTYYADSVKGRFTISRDNAKNTDYLQMNSLKPEDTAVYYCAADDVGRYWSYTHNWARGDYWGQGTQVTVSS”, the “polyreactivity (PSR sort gate)” value is “low polyreactivity”.

Turning to “QVQLVESGGGLVQAGGSLRLSCAASGSIFPAYAMGWYRQAPGKERELVAAITDRGGYTYYADSVKGRFTISRDNAKNTVYLQMNSLKPEDT”, the “polyreactivity (PSR sort gate)” value is on record as “low polyreactivity”.

Take “QVQLVESGGGLVQAGGSLRLSCAASGSIFPAYAMGWYRQAPGKERELVAAITFSGGSTYYADSVKGRFTISRDNAKNTVYLQMNSLKPEDTAVYYCATDSYGWRFNRAITSYGGDYWGQGTQVTVSS”: the “polyreactivity (PSR sort gate)” value is “low polyreactivity”.

Regarding “QVQLVESGGGLVQAGGSLRLSCAASGSIFPAYAMGWYRQAPGTERELVAAITFSGGRTYYADSVKGRFTISRDNAKNTVYLQMNSLKPEDTAVYDCAAYGAPSGTGAKYGYWGQGTQVTVSS”, the “polyreactivity (PSR sort gate)” value is “low polyreactivity”.

Consider “QVQLVESGGGLVQAGGSLRLSCAASGSIFPEYVMGWYRQAPGKERELVAAISWSGGSTYYADSVKGRFTISRDNAKNTVYLQMNSLKPEDTAVYYCNRVPSWRIDYDYWGQGTQVTVSS”, for which the “polyreactivity (PSR sort gate)” value is “low polyreactivity”.

As for “QVQLVESGGGLVQAGGSLRLSCAASGSIFPFNAMGWYRQAPGKERELVAAIRWSDGRTYYADSVKGRFTISRDNAKNTVYLQMNSLKPEDTAVYYCAAKSYWGQGTQVTVSS”, the “polyreactivity (PSR sort gate)” value is listed as “high polyreactivity”.

Turning to “QVQLVESGGGLVQAGGSLRLSCAASGSIFPFNAMGWYRQAPGKERELVAAISRRGTGTYYADSVKGRFTISRDNAKNTVYLQMNSLKPEDTAVYYCNAVVRAGHYDYWGQGTQVTVSS”, the “polyreactivity (PSR sort gate)” value was “high polyreactivity”.

As to “QVQLVESGGGLVQAGGSLRLSCAASGSIFPFYALGLYSQAPGTDRELVAGISNGDSPNYADSVKGRFTIARDNAKNSVYLQLNSLKPEDTGVYYCATDLPGGRYYGPYDYWGQGTQGTVSS”, the “polyreactivity (PSR sort gate)” value is “low polyreactivity”.

Regarding “QVQLVESGGGLVQAGGSLRLSCAASGSIFPFYAMGWYRKAPGKERELVAAISDRGGSTYYADSVKGRFTISRDNAKNTVYLQMNSLKPDDTAVYYCAKGAEVSQGYTDEYDYWGQGTQVTVSS”, the “polyreactivity (PSR sort gate)” value was “low polyreactivity”.

For the origin of these results see the nanobody polyreactivity screen of Harvey et al. (2022).
